Laboratory results taken from the supplement of paper PMC9732359.
± gives the uncertainty stated by the source.

Test: protein stability index of a GFP-peptide fusion (yeast GPS) (PSI 1-4); higher = more stable; sorted into four equal gates, so the index is relative within each strain
Procedure, shortened: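 For each peptide, the protein stability index sums the read frequency in every gate after multiplying it by the gate number. Read frequencies came from plasmids that were PCR-amplified from each gate and Illumina-sequenced, with reads assigned to strains by barcodes. The gates were four equal bins of GFP/Cherry fluorescence ratio applied to mid-log yeast in leucine-free medium carrying a pooled library of tiled 17-residue yeast protein peptides fused downstream of GFP on a Cherry-expressing plasmid.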

| Sequence | protein stability index (doa10∆) | protein stability index (pdr5∆) | protein stability index (san1∆) | protein stability index (ubr1∆) |
| --- | --- | --- | --- | --- |
| GGSGAATFSVSQASSDL [CSL4] | 3.4 ± 0.08 | 3.31 ± 0.074 | 3.43 ± 0.061 | 3.36 ± 0.06 |
| IPSQRGTSTTHGSISPQ [SIR3] | 2.39 ± 0.033 | 2.58 ± 0.035 | 2.37 ± 0.036 | 2.54 ± 0.026 |
| QFSESTHNDIDSTAVAL [YJL039C/NUP192] | 2.76 ± 0.098 | 2.5 ± 0.2 | 2.71 ± 0.087 | 3.16 ± 0.071 |
| TGWISKCTAEGIKVSLL [RPC25] | 2.9 ± 0.14 | 3.12 ± 0.15 | 2.66 ± 0.08 | 2.95 ± 0.15 |
| PSAFNFTGNNSTPGGGS [YOR098C/NUP1] |  |  | 3.14 ± 0.13 |  |
| IGMSLLMRTFLYTLAQE [SIR3] | 1.82 ± 0.14 | 2.37 ± 0.083 | 1.83 ± 0.1 | 1.76 ± 0.11 |
| VQLLLHINSILLARVIQ [SNF11] | 1.84 ± 0.12 | 1.27 ± 0.076 |  | 1.47 ± 0.087 |
| VEMAWIMGFISYHNGNL [FAS2] | 2.67 ± 0.14 | 3.2 ± 0.1 | 3.29 ± 0.063 | 3.06 ± 0.12 |
| SHFDYNTLEFIIEQLSI [YCG1] | 2.48 ± 0.078 | 2.62 ± 0.12 | 2.18 ± 0.14 | 2.37 ± 0.086 |
| STLKSFFTNPNKKRPSS [YOR098C/NUP1] | 2.79 ± 0.052 | 3.06 ± 0.049 | 3.08 ± 0.043 | 2.91 ± 0.045 |
| INSTKNGKDNNNESNKN [MED2] | 3.08 ± 0.052 | 3.15 ± 0.045 | 3.22 ± 0.038 | 3.19 ± 0.033 |
| QAMGVFLTNYNVRMDTM [RPB2] | 3.54 ± 0.19 | 3.14 ± 0.16 | 3.63 ± 0.11 | 3.5 ± 0.14 |
| ENGTHNDEVNEDEEDDN [YCG1] | 3.42 ± 0.1 | 3.23 ± 0.12 | 3.54 ± 0.11 | 3.49 ± 0.14 |
| GGDVVKFQKLLQNSERD [SMC4] | 3.15 ± 0.073 | 3.11 ± 0.049 | 3.06 ± 0.047 | 2.96 ± 0.052 |
| IESIVNLAPKLRNVFLG [GRR1] | 1.94 ± 0.13 | 1.41 ± 0.085 | 1.26 ± 0.14 | 1.42 ± 0.064 |
| FKLGKFNYVAVGDVSNL [QCR2] | 3.28 ± 0.1 | 2.01 ± 0.1 | 2.38 ± 0.14 | 2.83 ± 0.068 |
| IVTALLESDVNIALVSK [SRP54] | 3.22 ± 0.18 | 3.19 ± 0.088 | 3.24 ± 0.12 | 3.35 ± 0.12 |
| QLRKEIQLLDENVGTRL [MED11] |  | 3.09 ± 0.19 | 3.57 ± 0.11 |  |
| LVSANNDNNSPHTPVTR [YLR018C/POM34] | 2.63 ± 0.12 | 2.85 ± 0.072 | 2.92 ± 0.08 | 2.95 ± 0.12 |
| EVPEGVTVSIKSRIVKV [RPL9A] | 1.51 ± 0.064 | 1.86 ± 0.061 | 1.57 ± 0.097 | 2.26 ± 0.091 |
| DDLIHFTLKQWNRLTIS [COR1] | 1.3 ± 0.052 | 1.34 ± 0.041 | 1.27 ± 0.066 | 1.33 ± 0.043 |

| Sequence | protein stability index (doa10∆) | protein stability index (pdr5∆) | protein stability index (san1∆) | protein stability index (ubr1∆) |
| --- | --- | --- | --- | --- |
| EIDVENHDRINISNNLQ [RPN8] | 3.21 ± 0.061 | 3.26 ± 0.082 | 3.32 ± 0.043 | 3.21 ± 0.054 |
| VYAFKAKNKSTRINGLN [REC8] | 1.53 ± 0.1 | 1.65 ± 0.094 | 1.77 ± 0.19 | 1.59 ± 0.12 |
| NRRGMLALSGTSASNTS [SNF5] | 3.02 ± 0.064 | 3.1 ± 0.064 | 2.86 ± 0.064 | 2.92 ± 0.066 |
| IGAVYSGMGPDYRVLVD [PRE8] | 3.67 ± 0.28 |  | 2.92 ± 0.3 | 3.38 ± 0.12 |
| GQGYRKVGIWPYFDYIF [YJL039C/NUP192] | 3.37 ± 0.14 | 3.21 ± 0.12 | 3.03 ± 0.12 | 2.62 ± 0.17 |
| RCFENLQNKSFKSVLPI [UBP6] | 2.35 ± 0.076 | 1.98 ± 0.09 | 2.05 ± 0.12 | 2.45 ± 0.057 |
| PVKALNECIASTSNALK [SNF12] | 2.85 ± 0.056 | 2.8 ± 0.066 | 2.75 ± 0.05 | 2.81 ± 0.051 |
| GRQFCNRLSRIHLYMLT [YLR018C/POM34] | 1.68 ± 0.051 | 1.87 ± 0.05 | 1.69 ± 0.1 | 1.8 ± 0.04 |
| PKKEYDDDAVRREVQIQ [NSL1] | 1.4 ± 0.18 | 2.11 ± 0.25 | 1.36 ± 0.29 | 2.38 ± 0.21 |
| NLDYLFELIELVTPKSF [NUT1] | 2.85 ± 0.057 | 3 ± 0.082 | 3.09 ± 0.062 | 3.31 ± 0.063 |
| PEYYSTARVMGGLKNGV [DIS3] | 3.15 ± 0.093 | 3.24 ± 0.1 | 3.23 ± 0.052 | 3.01 ± 0.082 |
| PYAIVKGKARLGTLVNQ [RPL8A] | 2.54 ± 0.1 | 2.81 ± 0.093 | 2.74 ± 0.16 | 2.73 ± 0.073 |
| ARIIAAIPNPEDVVAIS [RPS0A] | 1.8 ± 0.071 | 2.14 ± 0.083 | 2.34 ± 0.091 | 2.31 ± 0.083 |
| SQLQEQFNKILPEPTEG [FAS1] | 2.82 ± 0.1 | 3.17 ± 0.12 | 2.64 ± 0.076 | 2.71 ± 0.097 |
| SPEGRLFQVEYSLEAIK [PUP2] | 2.37 ± 0.19 | 2.86 ± 0.1 | 2.75 ± 0.12 | 2.62 ± 0.067 |
| NNRWAENNYKKRLLGTA [RPS23A] | 2.37 ± 0.27 | 2.78 ± 0.16 |  |  |
| LFPIVKKHGKTDYFLPK [YJL039C/NUP192] | 2.46 ± 0.2 | 2.66 ± 0.11 | 2.58 ± 0.15 | 2.08 ± 0.062 |
| ETLENNIVSVLTAGVNS [RPN11] | 2.5 ± 0.1 | 2.65 ± 0.076 | 2.24 ± 0.11 | 2.57 ± 0.09 |
| NYNRIAKICALLFFNFS [NUT1] | 1.89 ± 0.048 | 1.8 ± 0.047 | 1.37 ± 0.082 | 1.61 ± 0.031 |
| FTPQEIEYCSAQPSVQS [FAS2] | 2.88 ± 0.27 |  |  |  |
| NTFKVLSKFFFFIFVFN [COB] | 1.66 ± 0.078 | 1.41 ± 0.1 | 1.32 ± 0.2 | 1.29 ± 0.077 |
